Measured values taken from the nanobody polyreactivity screen of Harvey et al. (2022).

Experiment: yeast display, Sf9 membrane polyspecificity reagent, FACS + sequencing; frameworks hold sequencing errors
Outline: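 A nanobody's polyreactivity label depends on the gate it was sorted from. Yeast display cells were stained with 10% biotinylated, detergent-solubilized Sf9 membrane reagent for 1 hour at 4 °C, enriched on streptavidin microbeads and sorted by FACS. The low and high (top ~1%) gates were set on anti-HA fluorescence for expression and streptavidin fluorescence for reagent binding.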

Sequence	polyreactivity (PSR sort gate)
QVQLVESGGGLVQAGGSLRLSCAASGSTFWTNDMGWYRQAPGKERELVAAISQSAGDTYYADSVKGRFTISRDNAKNTVYLQMNSLKPEDTAVYYCAADLVFYPFTWDGYYYWGQGTQVTVSS	low polyreactivity
QVQLVESGGGLVQAGGSLRLSCAASGSIFKPYVMGWYRQAPGKERELVAAITSSGVSTYYADSVKGRFTISRDNAKNTVYLQMNSLKPEDTAVYYCAADQYLGRAWRRRGYYWGQGTQVTVSS	high polyreactivity
QVQLVESGGGLVQAGGSLRLSCDASGIILNINAMGWYRQAPGKERELVAAITSDGSTNYADSVKGRFTISRDNAKNTVYLQMNSLKPEDTAVYYCAVDLPWGTGVSQYPESDYWGQGTQVTVSS	low polyreactivity
QVQLQESGGGLVQAGGSLRLSCAASGTISQEDWKGRYRQAPGKEREFVAAIGLGSNTNYADSLKGRFTISRDNAKNSVYLQMNSLKPEDTAVYYCAVSVWQYSDHVYRGQGTQVTVSS	low polyreactivity
QVQLVESGGGLVQAGCSLRLSCAASGFIFTTYAMGWYRQEPGKERELVAAISGRGGTTYYADSVKGRFTISLDTAKNTVYLQMNSLKPEDTAVYYCAADGYPGDDYWGQGTQVTVSS	high polyreactivity
QVQLVESGGGLVQAGGSLPLSCAASGRIFKDNAMGWYRQAPGNEREMVAAISSGASTSYADSVKGRFTISRDYAKNTVYLQRNSLKPEDTAVYYCNGGGDLYYPGWLFDYWGQGTQVTVSS	low polyreactivity
QLQLVESRGGLVQAGGSLRLSCASYGSIFIWYAMGWYRQATGKERELVAAITSSGSTNYADSVKGRFTISRDNAKNPVYLQMNSLKPEDTAVYYCAAEYTYYTYNLNYWGQGTQVTVSS	low polyreactivity
QVQLQESGGLVQAGGLRLSCAASGSVSYQEAMGWYRQAPGKERELVATISFGANTNYADSVKGRFTISRDNAKNTVYLQMNSLKPEDTAVYYCAADAYRWWVRYDYWGQGTQVTVSS	low polyreactivity
QVQLVESGGGLVQAGGSLRLSCAASGIIFPYYAMGWYRQAPGKERELVAAIDWSGTSTYYADSVKGRFTISRDNAKNTVYLQMNSLKPEDTAVYYCAADYPQAGLLYYYWGQGTQVTVSS	low polyreactivity
QIQLVESGGGIVQAGGSLRLSCAASGFIFNTYDMGWYRQAPGKEMELVAVITSGGTTNYADSVKGRFTISRDNAKNTVYLQINCLKPEDTAVYSCNRDSVLDPGNPKPYVFDYWGQGTQVTVSS	low polyreactivity
QVQLVESGGGLVQAGGSLRLSCAASGSTFEYNAMGWYRQAPGKERELVASSTNYADSVKGRFTISRDNAKNTVYLQMNSLKPEDTAVYYCAREQGVNRNHDYRGQGTQVTVSS	low polyreactivity
QVQLVESGGGLVQAGGSLRLSCAASGSIFAYNAMGWYRQAPGKERELVAAISSGGRTKYADSVKGRFTISRDNAKNTVYLQMNSLKPEDTAVYYCAAESYTGKYSWVWKWYDYWGQGTQVTVSS	low polyreactivity
QVQLVETGGGLVQAGGSLRVSCAASGSTFSGYAMGWYRQAPGKERELVAAITRSGGRTYYADSVKGRFTISRDNAKNTVYLQMNSLLPEDTAVYYCATDRAYYHSYGRFGYWGQGTHVTVSS	high polyreactivity
QVQLVESGGGLVQAGGSLRLSCAASGFTFKTNARGWYRQAPVTERELVAAITGSGSSTYYADSVKGRFTISRDNAKNTVYLQMNSLKPEDTAVYYCAASRVYKYYWGQGTEVTVSS	high polyreactivity
QVQLVESGGGLVQGGGSLRLSCAASGRTFYWNAMGWYRQAPGKERELVAAIRWRGGNTYYADSVKGRFTISRDIEKNTVYLQMNSLKPEDSAVYYCAAAGGNTEMGYWGQGSQVTVSS	high polyreactivity
QVQLVESGGGLVQAGGSLRLSCAASGSIFDWNAMGWYRQAPGKERELVAAISGTGGTKYADSVKGRFTISRDNAKNTVYLQMNSLKPEDTAVYYCAVGLVPLRDGWHFYYEFDSWGQGTQVTVSS	low polyreactivity
QVQLVESGGGKVQAGGSLRLSCAASGFILSRNAMGWYRQAPGKERELVAAISRSGTRTYYADSVKGRFTISRDNEQNTVYLQMNSLKPEDTAVYYCARVSKRTWTGYYYWGQGTQVTVSS	high polyreactivity
